Results: patent US20100297160A1 (MEDICAL COLLEGE OF GEORGIA RESEARCH INSTITUTE, published 2010)

Target: human amyloid beta 42 (Aβ42) (human)
Assay: co-incubation of equimolar peptides for one month at 37 C, dialysis, 10 kDa filter concentration, SDS gel
Method: Various means were studied to enhance the immune potential of amyloid peptides. One such approach was derived from experiments with samples of human plasma and brain tissues having a complex of peptides that expressed epitopes for both human Aβ peptide and human RAGE. This involved the incubation of equimolar amounts of Aβ and an immunogenic fragment of RAGE for one month in sterile water at 37° C.
After incubation, the solution was dialyzed to remove unused products. The dialyzed solution was then concentrated in a centrifugation filter with a 10,000 molecular weight cutoff. […] The concentrated complex was dissolved in water and administered orally to rats on three occasions with two weeks between administrations. Two weeks after the last administration plasma samples were obtained for the determination of Aβ or RAGE titers.

human amyloid beta 42 (Aβ42) (human), sequence (peptide, as listed by the source): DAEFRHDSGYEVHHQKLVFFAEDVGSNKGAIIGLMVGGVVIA

## AQNITARIGEPLVLKCKGAPKKPPQRLEWKLN (also called RAGE fragment) [immunogenic fragment of RAGE, amino acids 23 to 54 of human RAGE (RAGE23-54)]
  binding result: binds
